Patent US20160333061A1
Values belong to the substance of their own block, whether it stands above or below them.

What was measured:
Test in all cases: cell-based or functional assay
[1] = molecular target: CytERM-EBFP2 (Aequorea victoria (Water jellyfish) (Mesonema victoria)) [GFP: P42212]
CytERM-mTagBFP = molecular target: CytERM-mTagBFP
[2] = molecular target: CytERM-moxBFP (Aequorea victoria (Water jellyfish) (Mesonema victoria)) [GFP: P42212]

% Cells with OSER Structures (n = cells) [1]: 63.7%
Substance: CytERM-EBFP2 (from UniProt P42212 2-238)

% Cells with OSER Structures (n = cells) (CytERM-mTagBFP): 43.5%
Substance: CytERM-mTagBFP

% Cells with OSER Structures (n = cells) [2]: 0.9%
Substance: CytERM-moxBFP (from UniProt P42212 2-238)
